The target of series [1] is T1, hCdc5 DNA-binding domain (aa 1-500) (Homo sapiens, UniProt Q99459 SEQ:1-500). In words: EMSA; text: abolished. Particulars: tags: His6 fusion (pET29c(+), E. coli BL21(DE3), Ni-NTA); chain copies: forms homodimers by glutaraldehyde cross-linking in vitro; label: 32P. On the procedure: Labeled oligonucleotides bearing substitutions in each of the bases comprising the consensus sequence were incubated with recombinant His₆-hCdc5 and gel shift assays were carried out as described above to determine the binding affinities for the mutated sequences. […] Substitutions at any other position abolished DNA-protein binding implicating these residues as critical for the interaction.

Series [2] has as its target T1, hCdc5 DNA-binding domain (aa 1-500). In words: EMSA; amino terminus of hCdc5. Particulars: tags: His6 fusion (pET29c(+), E. coli BL21(DE3), Ni-NTA); chain copies: forms homodimers by glutaraldehyde cross-linking in vitro. The source says: (§1) To determine whether hCdc5 interacts with specific genomic sequences through direct DNA binding, we first surveyed the 12 genomic sequences (totaling ˜36,200 bp) identified by binding selection in yeast for the synthetic consensus binding sequence identified by cyclic amplification and selection in the example above. An exact match was not found, although this was not surprising as the likelihood of finding a unique 12 bp sequence is 6×10⁻⁸, and is predicted to occur by chance ˜180 times in the human genome. We then used the information obtained by scanning mutagenesis to look for sites containing the core “ANCA” motif flanked by palindromes within the genomic clones. […] Complementary oligonucleotides representing the sequences in Table 2 flanked by the non-random oligo flanking sequences used in the oligonucleotide selection experiments described above were used for the gel shift assays. Two of these active binding sites were found in the two clones which represented overlapping sequences from the same region of the genome (clones 6 and 30). All 3 sites shared features of the consensus binding sequence: a core “ANCA” motif, AT-rich flanking palindromes, and a distance between core and palindromes of no more than 3 bp.
A general note: In EMSA bound probe runs differently from free probe, usually more slowly.

Series [3] has the same target. The series can be described thus: EMSA; single-stranded antisense. The settings on record: tags: His6 fusion (pET29c(+), E. coli BL21(DE3), Ni-NTA); chain copies: forms homodimers by glutaraldehyde cross-linking in vitro.
Series [4] has the same target. The series can be described thus: EMSA; 1 nM DNA, 2.5-40 nM protein; 10 mM HEPES pH 7.8, 75 mM KCl, 2.5 mM MgCl2, poly(dI-dC), room temperature. Particulars: tags: His6 fusion (pET29c(+), E. coli BL21(DE3), Ni-NTA); chain copies: forms homodimers by glutaraldehyde cross-linking in vitro; label: 32P.
Series [5] has as its target hCdc5 W31G W53G W82G mutant (Homo sapiens, UniProt Q99459 SEQ:1-500, W31G,W53G,W82G). In words: EMSA; data not shown. Particulars: label: 32P.
Series [6] addresses T1, hCdc5 DNA-binding domain (aa 1-500). The series can be described thus: EMSA; data not shown; protein construct not specified. Particulars: tags: His6 fusion (pET29c(+), E. coli BL21(DE3), Ni-NTA); chain copies: forms homodimers by glutaraldehyde cross-linking in vitro.
Series [7] shares this target. The series can be described thus: EMSA; single-stranded sense. Particulars: tags: His6 fusion (pET29c(+), E. coli BL21(DE3), Ni-NTA); chain copies: forms homodimers by glutaraldehyde cross-linking in vitro.
Series [8] has the same target. The series can be described thus: EMSA; amino terminus of hCdc5; clones 6 and 30 overlap; clone 6 printed as … in table but SEQ 15 given. Particulars: tags: His6 fusion (pET29c(+), E. coli BL21(DE3), Ni-NTA); chain copies: forms homodimers by glutaraldehyde cross-linking in vitro.
Text: as §1

T1 sequence (Q99459 1-500): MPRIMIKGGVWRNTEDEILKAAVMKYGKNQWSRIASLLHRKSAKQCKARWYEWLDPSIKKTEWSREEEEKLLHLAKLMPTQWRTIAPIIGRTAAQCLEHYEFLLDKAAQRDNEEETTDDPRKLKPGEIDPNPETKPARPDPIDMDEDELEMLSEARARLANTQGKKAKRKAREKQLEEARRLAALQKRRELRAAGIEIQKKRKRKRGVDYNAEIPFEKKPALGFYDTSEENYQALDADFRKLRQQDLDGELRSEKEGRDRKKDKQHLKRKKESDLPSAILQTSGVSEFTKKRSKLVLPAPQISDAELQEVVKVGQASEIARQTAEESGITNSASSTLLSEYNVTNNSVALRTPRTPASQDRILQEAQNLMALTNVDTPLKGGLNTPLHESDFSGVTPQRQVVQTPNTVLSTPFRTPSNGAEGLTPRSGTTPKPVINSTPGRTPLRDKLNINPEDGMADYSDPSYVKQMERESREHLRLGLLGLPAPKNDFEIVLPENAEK
hCdc5 W31G W53G W82G mutant, sequence (Q99459 1-500 W31G/W53G/W82G): as the sequence (Q99459 1-500) above, with W31G, W53G, W82G counted along it

B1: consensus mutant position 9 (dsDNA)
DNA 1: GATTTAACCTAA
DNA 2: TTAGGTTAAATC
For B1, in series [1], the binding signal is 0.2 fraction of control.

B2: consensus mutant position 3 (dsDNA)
DNA 1: GAGTTAACATAA
DNA 2: TTATGTTAACTC
As for B2, the binding signal in series [1] was 0.2 fraction of control.

B3: consensus mutant position 4 (dsDNA)
DNA 1: GATGTAACATAA
DNA 2: TTATGTTACATC
Consider B3, for which, in series [1], the binding signal was 0.2 fraction of control.

B4: consensus mutant position 11 (dsDNA)
DNA 1: GATTTAACATCA
DNA 2: TGATGTTAAATC
In the case of B4, the binding signal in series [1] was 0.2 fraction of control.

B5: genomic clone 25 site (dsDNA)
DNA 1: CGCTCGAGGGATCCGAATTCAATTCCCCGGATCATTGCAAACAATTTCTAGAAAGCTTGTCGACGC
DNA 2: GCGTCGACAAGCTTTCTAGAAATTGTTTGCAATGATCCGGGGAATTGAATTCGGATCCCTCGAGCG
On to B5, for which the binding result in series [2] is “no binding”.

B6: consensus mutant position 10 (dsDNA)
DNA 1: GATTTAACAGAA
DNA 2: TTCTGTTAAATC
B6: the binding signal in series [1] is 0.2 fraction of control.

B7: genomic clone 12 site 2 (dsDNA)
DNA 1: CGCTCGAGGGATCCGAATTCCCCCCCTTTAAACCAGCGTGGAGGGGGGTCTAGAAAGCTTGTCGACGC
DNA 2: GCGTCGACAAGCTTTCTAGACCCCCCTCCACGCTGGTTTAAAGGGGGGGAATTCGGATCCCTCGAGCG
Take B7: the binding result in series [2] was “no binding”.

B8: consensus site single-stranded antisense (ssDNA)
DNA: TTATGTTAAATC
modifications: [NONE]
For B8, in series [3], the binding result is listed as “no binding”.

B9: hCdc5 consensus site (dsDNA)
DNA 1: GATTTAACATAA
DNA 2: TTATGTTAAATC
For the molecule B9, the Kd (usually the concentration at which binding is half-saturated) in series [4] is approximately 10 nM. Besides, the binding result in series [5] is listed as “no binding”.

B10: new-palindrome mutant GATGTAACATAC (dsDNA)
DNA 1: GATGTAACATAC
DNA 2: GTATGTTACATC
With B10, the binding result in series [6] was “no binding”.

B11: genomic clone 8 site (dsDNA)
DNA 1: CGCTCGAGGGATCCGAATTCAATGAACGAATCAAATTTCTAGAAAGCTTGTCGACGC
DNA 2: GCGTCGACAAGCTTTCTAGAAATTTGATTCGTTCATTGAATTCGGATCCCTCGAGCG
For B11, the binding result in series [2] was “no binding”.

B12: consensus site single-stranded sense (ssDNA)
DNA: GATTTAACATAA
As to B12, the binding result in series [7] was “no binding”.

B13: genomic clone 6/30 site (dsDNA)
DNA 1: CGCTCGAGGGATCCGAATTCAATAAAATCAAAATTTCTAGAAAGCTTGTCGACGC
DNA 2: GCGTCGACAAGCTTTCTAGAAATTTTGATTTTATTGAATTCGGATCCCTCGAGCG
Turning to B13, the binding result in series [8] is given as “binds”.

B14: consensus mutant position 8 (dsDNA)
DNA 1: GATTTAATATAA
DNA 2: TTATATTAAATC
Consider B14, for which, in series [1], the binding signal is 0.2 fraction of control.

B15: new-palindrome mutant GATATAACATAT (dsDNA)
DNA 1: GATATAACATAT
DNA 2: ATATGTTATATC
As to B15, the binding result in series [6] is on record as “no binding”.

B16: consensus mutant position 6 (dsDNA)
DNA 1: GATTTCACATAA
DNA 2: TTATGTGAAATC
B16: the binding signal in series [1] was 0.1 fraction of control.

B17: genomic clone 12 site 1 (dsDNA)
DNA 1: CGCTCGAGGGATCCGAATTCAAAGGGGAACACTTTTCTAGAAAGCTTGTCGACGC
DNA 2: GCGTCGACAAGCTTTCTAGAAAAGTGTTCCCCTTTGAATTCGGATCCCTCGAGCG
In the case of B17, in series [2], the binding result is reported as “binds”.

The record behind these values is patent US20020127702, “Methods and compositions for regulating cell cycle progression” (published 2002).
